Broadly, the Km is the substrate concentration at which the rate is half of its maximum. By Vmax is commonly meant the rate approached at saturating substrate. By kcat/Km is commonly meant the second-order rate constant that governs catalysis at low substrate concentration.

The record followed here is publication PMC4243253.

The data set relates to N[C@@H](CC(=O)c1ccccc1NC=O)C(=O)O. In words: purified protein. The conditions noted are these: pH 7.4; 25.0 °C.

As for BaKynB (Bacillus anthracis), the Km was determined as 400 ± 50 µM, the Vmax worked out at 0.0654 µmol/min and the catalytic efficiency (kcat/Km) was found to be 126000 M⁻¹ s⁻¹.
